Laboratory results: PMC7907060, “Interaction of Plasmodium falciparum apicortin with α- and β-tubulin is critical for parasite growth and survival” (Scientific Reports, 2021)

How the values were obtained:
[1] = biological target: T1, recombinant Plasmodium falciparum β-tubulin (Plasmodium falciparum, UniProt Q7KQL5 1-445); assay: SPR; apicortin (12 µM) immobilised by amine coupling on a gold sensor chip; tubulins 100 nM-1 µM injected, 500 s; PBS; Autolab ESPRIT; settings: both partners purified
T1 construct: Plasmodium falciparum β-tubulin, cloned in pET28a+; also called Pfβ-tubulin

[2] = biological target: T2, recombinant Plasmodium falciparum α-tubulin-I (Plasmodium falciparum, UniProt Q6ZLZ9 1-453); assay: as above; settings: both partners purified
T2 construct: Plasmodium falciparum α-tubulin-I, cloned in pET28a+; also called Pfα-tubulin-I

B1: recombinant Plasmodium falciparum apicortin (natural protein, UniProt C0H4E4 1-238, looked up)
chain: MENFDEVIKEYQKYLEGKEKTHKINSCKHPCCEEDNLKSVKNYFKVYHKKYIPSIIQKKKKERNEHAPPLLKDIQDKRCTNVFERLNDKQFYTGVQKTKFMELLKNNKNKSSYCYNNIKVFSTMLKKPCNYVVTPGTLGIQKYGIQTGRPKTIFLFNNEKKYDKGVYFLVKSYIKNIKSLCYEITKILQPSIGPTRKIYDQNFSLVRNVNDLINGGKYLCTSGDPPAPIRNLSLHFLT
notes: Plasmodium falciparum apicortin, cloned in pET28a+; the His tag is surmised from pET28a+ and Ni-NTA; also called PfApicortin
Kd [1]: 750 nM
Kd [2]: 120 nM
